B1: EEHEE_rd4_0003 (parent)
chain: KKVTINGVEIKFNNPEEAVKFALELAKRLNLRIEFHGDQIKIE

Variants of: B1
Test: folding stability dG (cDNA display proteolysis); higher = more stable
Details: PBS, room temperature

Variant | folding stability dG
KKVTINGVEIKFNNGEEAVKFALELAKRLNLRIEFHGDQIKIE [P15G] | 2.53 kcal/mol
KKVTINGVEIKFNNYEEAVKFALELAKRLNLRIEFHGDQIKIE [P15Y] | 3.14 kcal/mol
KKVTINGVEIKFNNIEEAVKFALELAKRLNLRIEFHGDQIKIE [P15I] | 2.85 kcal/mol
KKVTINGVEIKFNNKEEAVKFALELAKRLNLRIEFHGDQIKIE [P15K] | 2.47 kcal/mol
KKVTINGVEIKFNNMEEAVKFALELAKRLNLRIEFHGDQIKIE [P15M] | 2.97 kcal/mol
KKVTINGVEIKFNNTEEAVKFALELAKRLNLRIEFHGDQIKIE [P15T] | 2.74 kcal/mol
KKVTINGVEIKFNNVEEAVKFALELAKRLNLRIEFHGDQIKIE [P15V] | 2.67 kcal/mol
KKVTINGVEIKFNNDEEAVKFALELAKRLNLRIEFHGDQIKIE [P15D] | 2.46 kcal/mol
KKVTINGVEIKFNNWEEAVKFALELAKRLNLRIEFHGDQIKIE [P15W] | 3.67 kcal/mol
KKVTINGVEIKFNNAEEAVKFALELAKRLNLRIEFHGDQIKIE [P15A] | 2.78 kcal/mol
KKVTINGVEIKFNNEEEAVKFALELAKRLNLRIEFHGDQIKIE [P15E] | 2.52 kcal/mol
KKVTINGVEIKFNNREEAVKFALELAKRLNLRIEFHGDQIKIE [P15R] | 2.79 kcal/mol
KKVTINGVEIKFNNHEEAVKFALELAKRLNLRIEFHGDQIKIE [P15H] | 2.84 kcal/mol
KKVTINGVEIKFNNLEEAVKFALELAKRLNLRIEFHGDQIKIE [P15L] | 2.9 kcal/mol
KKVTINGVEIKFNNSEEAVKFALELAKRLNLRIEFHGDQIKIE [P15S] | 2.77 kcal/mol
KKVTINGVEIKFNNFEEAVKFALELAKRLNLRIEFHGDQIKIE [P15F] | 3.12 kcal/mol
KKVTINGVEIKFNNNEEAVKFALELAKRLNLRIEFHGDQIKIE [P15N] | 2.45 kcal/mol
KKVTINGVEIKFNNCEEAVKFALELAKRLNLRIEFHGDQIKIE [P15C] | 3.65 kcal/mol
KKVTINGVEIKFNNQEEAVKFALELAKRLNLRIEFHGDQIKIE [P15Q] | 2.48 kcal/mol
KKVTINGVEIKFNNPAEAVKFALELAKRLNLRIEFHGDQIKIE [E16A] | 2.61 kcal/mol

Variant | folding stability dG
KKVTINGVEIKFNNPSEAVKFALELAKRLNLRIEFHGDQIKIE [E16S] | 2.54 kcal/mol
KKVTINGVEIKFNNPWEAVKFALELAKRLNLRIEFHGDQIKIE [E16W] | 2.99 kcal/mol
KKVTINGVEIKFNNPVEAVKFALELAKRLNLRIEFHGDQIKIE [E16V] | 2.53 kcal/mol
KKVTINGVEIKFNNPGEAVKFALELAKRLNLRIEFHGDQIKIE [E16G] | 2.48 kcal/mol
KKVTINGVEIKFNNPCEAVKFALELAKRLNLRIEFHGDQIKIE [E16C] | 3.56 kcal/mol
KKVTINGVEIKFNNPIEAVKFALELAKRLNLRIEFHGDQIKIE [E16I] | 2.59 kcal/mol
KKVTINGVEIKFNNPYEAVKFALELAKRLNLRIEFHGDQIKIE [E16Y] | 2.7 kcal/mol
KKVTINGVEIKFNNPPEAVKFALELAKRLNLRIEFHGDQIKIE [E16P] | 2.08 kcal/mol
KKVTINGVEIKFNNPDEAVKFALELAKRLNLRIEFHGDQIKIE [E16D] | 2.53 kcal/mol
KKVTINGVEIKFNNPNEAVKFALELAKRLNLRIEFHGDQIKIE [E16N] | 2.43 kcal/mol
KKVTINGVEIKFNNPREAVKFALELAKRLNLRIEFHGDQIKIE [E16R] | 2.6 kcal/mol
KKVTINGVEIKFNNPLEAVKFALELAKRLNLRIEFHGDQIKIE [E16L] | 2.69 kcal/mol
KKVTINGVEIKFNNPFEAVKFALELAKRLNLRIEFHGDQIKIE [E16F] | 2.69 kcal/mol
KKVTINGVEIKFNNPHEAVKFALELAKRLNLRIEFHGDQIKIE [E16H] | 2.47 kcal/mol
KKVTINGVEIKFNNPMEAVKFALELAKRLNLRIEFHGDQIKIE [E16M] | 2.66 kcal/mol
KKVTINGVEIKFNNPQEAVKFALELAKRLNLRIEFHGDQIKIE [E16Q] | 2.6 kcal/mol
KKVTINGVEIKFNNPTEAVKFALELAKRLNLRIEFHGDQIKIE [E16T] | 2.46 kcal/mol
KKVTINGVEIKFNNPKEAVKFALELAKRLNLRIEFHGDQIKIE [E16K] | 2.48 kcal/mol
KKVTINGVEIKFNLPEEAVKFALELAKRLNLRIEFHGDQIKIE [N14L] | 2.56 kcal/mol
KKVTINGVEIKFNVPEEAVKFALELAKRLNLRIEFHGDQIKIE [N14V] | 2.36 kcal/mol

Variant | folding stability dG
KKVTINGVEIKFNYPEEAVKFALELAKRLNLRIEFHGDQIKIE [N14Y] | 2.41 kcal/mol
KKVTINGVEIKFNPPEEAVKFALELAKRLNLRIEFHGDQIKIE [N14P] | 2.4 kcal/mol
KKVTINGVEIKFNDPEEAVKFALELAKRLNLRIEFHGDQIKIE [N14D] | 2.56 kcal/mol
KKVTINGVEIKFNSPEEAVKFALELAKRLNLRIEFHGDQIKIE [N14S] | 2.93 kcal/mol
KKVTINGVEIKFNTPEEAVKFALELAKRLNLRIEFHGDQIKIE [N14T] | 3.02 kcal/mol
KKVTINGVEIKFNIPEEAVKFALELAKRLNLRIEFHGDQIKIE [N14I] | 2.36 kcal/mol
KKVTINGVEIKFNHPEEAVKFALELAKRLNLRIEFHGDQIKIE [N14H] | 2.37 kcal/mol
KKVTINGVEIKFNKPEEAVKFALELAKRLNLRIEFHGDQIKIE [N14K] | 2.35 kcal/mol
KKVTINGVEIKFNGPEEAVKFALELAKRLNLRIEFHGDQIKIE [N14G] | 2.22 kcal/mol
KKVTINGVEIKFNCPEEAVKFALELAKRLNLRIEFHGDQIKIE [N14C] | 2.98 kcal/mol
KKVTINGVEIKFNAPEEAVKFALELAKRLNLRIEFHGDQIKIE [N14A] | 2.25 kcal/mol
KKVTINGVEIKFNQPEEAVKFALELAKRLNLRIEFHGDQIKIE [N14Q] | 2.06 kcal/mol
KKVTINGVEIKFNEPEEAVKFALELAKRLNLRIEFHGDQIKIE [N14E] | 1.86 kcal/mol
KKVTINGVEIKFNMPEEAVKFALELAKRLNLRIEFHGDQIKIE [N14M] | 2.38 kcal/mol
KKVTINGVEIKFNFPEEAVKFALELAKRLNLRIEFHGDQIKIE [N14F] | 2.64 kcal/mol
KKVTINGVEIKFNRPEEAVKFALELAKRLNLRIEFHGDQIKIE [N14R] | 2.44 kcal/mol
KKVTINGVEIKFNWPEEAVKFALELAKRLNLRIEFHGDQIKIE [N14W] | 2.39 kcal/mol
KKVTINGVEIKFNNPEEACKFALELAKRLNLRIEFHGDQIKIE [V19C] | 3.56 kcal/mol
KKVTINGVEIKFNNPEEAFKFALELAKRLNLRIEFHGDQIKIE [V19F] | 2.75 kcal/mol
